Patent publication US20220242941A1 (NOVOBIND LIVESTOCK THERAPEUTICS, published 2022)
Where a chain is given by its changes, count along the chain named.

B1: NBX0726 (VHH)
VHH: QVQLQQSGGGLVQAGGSVRLSCTANGLTFGNYAMAWFRRTPGKERAFVGGMSASGAGTYYLDSVKGRFTISRDTAKNTVYLEMNSLKAEDTAVYYCAANSIYPGRRWASYDYWGQGTQVTVSS
B2: NBX0727 (VHH)
VHH: QVQLQQSGGGLVQAGGSVRLSCAASGLTLGNYALAWFRRTPGKEREFVAGMSGSGAGTYYLDSVNGRFTISRDNAKNTLYLQMNSLKAEDTAVYYCAANSIYPGRRWASYDYWGQGTQVTVSS
B3: NBX0749 (VHH)
VHH: QVQLQESGGGLVQAGGSLRLSCATSGSIFSRDTMAWYRQVPGEQRELVAYITNFGGTNHADSVKGRFTISRDNAKNTVYLQMNSLKPEDTAVYYCAAGLLSLRTHTWEYWGQGTQVTVSS
B4: NBX0728 (VHH)
VHH: B3 VHH with T24A, G26A, I51V, G98D, L100I
B5: NBX0748 (VHH)
VHH: B3 VHH with A23V, T24A, T104S, Y109L
B6: NBX17024 (VHH)
VHH: QVQLQESGPGLVKPSQTLSLTCTVSGGSITTSYSTWSWIRQPPGKGLEWMGVIADDGSAEYSPSLKSRTSISLDTSKNQFSLQLSSVTPEDTAVYYCARRGGAWGSNWWAYHMDDWGKGTLVTVSS

Legend:
Eimeria tenella MIC2 = target: T1, Eimeria tenella MIC2 (Eimeria tenella); test: phage ELISA, antigen-coated wells;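 note: antigen dissolved in PBS and coated onto wells, with negative-control wells holding PBS alone as the reference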
T1 construct: Recombinant antigen coated on ELISA wells; also called EtMIC2
T1 chain: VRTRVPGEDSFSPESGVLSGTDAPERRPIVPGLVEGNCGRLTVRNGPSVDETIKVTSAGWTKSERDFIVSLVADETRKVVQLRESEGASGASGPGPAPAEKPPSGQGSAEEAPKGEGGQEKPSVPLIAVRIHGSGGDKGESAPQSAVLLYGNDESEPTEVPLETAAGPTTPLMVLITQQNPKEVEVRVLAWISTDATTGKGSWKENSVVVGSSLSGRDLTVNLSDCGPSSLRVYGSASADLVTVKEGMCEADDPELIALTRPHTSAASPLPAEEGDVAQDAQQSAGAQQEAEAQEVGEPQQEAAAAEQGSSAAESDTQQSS
Source text: Black bars show binding to wells coated with the antigen specified in Tables 1 and 2 dissolved in phosphate-buffered saline (PBS). Grey bars are negative controls that show binding to wells coated with PBS only.

[1] = target: T2, GST fusion of the EmAMA1-binding peptide of EmRON2 (Eimeria maxima, UniProt P08515 1-218 = GST); test: phage ELISA, wells coated with GST-RON2 peptide
T2 construct: Expressed in E. coli, purified as the other antigens but without TEV cleavage, so a His tag and TEV site probably remain; also called GST-RON2 peptide
T2 sequence (P08515 1-218, tags or fused parts left off): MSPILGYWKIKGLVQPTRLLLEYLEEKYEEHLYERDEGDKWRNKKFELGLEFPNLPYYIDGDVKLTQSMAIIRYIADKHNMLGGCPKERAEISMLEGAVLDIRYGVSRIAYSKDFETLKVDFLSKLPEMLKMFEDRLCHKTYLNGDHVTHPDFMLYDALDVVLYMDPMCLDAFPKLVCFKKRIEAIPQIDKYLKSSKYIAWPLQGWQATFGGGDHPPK

| Binder | binding relative to PBS-coated wells (Eimeria tenella MIC2) | binding relative to GST-coated wells [1] | binding relative to PBS-coated wells [1] |
| --- | --- | --- | --- |
| B1 | ≥ 4 times |  |  |
| B2 | ≥ 4 times |  |  |
| B3 | ≥ 4 times |  |  |
| B4 | ≥ 4 times |  |  |
| B5 | ≥ 4 times |  |  |
| B6 |  | ≥ 3 times | ≥ 4 times |
